From the supplement of paper PMC10065799, “High-throughput profiling of sequence recognition by tyrosine kinases and SH2 domains using bacterial peptide display” (eLife, 2023)
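Also: 11-residue human phosphosite peptides and single-mutation variants displayed on the E. coli surface, counted by deep sequencing, each peptide's frequency after selection divided by its frequency in the unselected input library; frequency after pTyr selection over input frequency; kinase dosed for 20-30% of maximal phosphorylation in three min.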

Each sequence was assayed against FGFR1 (UniProt P11362) (assay: phosphorylation enrichment, bacterial display (enrichment ratio); higher = better substrate or ligand; peptides without Tyr show the background).
FGFR1, sequence (P11362 whole entry, looked up): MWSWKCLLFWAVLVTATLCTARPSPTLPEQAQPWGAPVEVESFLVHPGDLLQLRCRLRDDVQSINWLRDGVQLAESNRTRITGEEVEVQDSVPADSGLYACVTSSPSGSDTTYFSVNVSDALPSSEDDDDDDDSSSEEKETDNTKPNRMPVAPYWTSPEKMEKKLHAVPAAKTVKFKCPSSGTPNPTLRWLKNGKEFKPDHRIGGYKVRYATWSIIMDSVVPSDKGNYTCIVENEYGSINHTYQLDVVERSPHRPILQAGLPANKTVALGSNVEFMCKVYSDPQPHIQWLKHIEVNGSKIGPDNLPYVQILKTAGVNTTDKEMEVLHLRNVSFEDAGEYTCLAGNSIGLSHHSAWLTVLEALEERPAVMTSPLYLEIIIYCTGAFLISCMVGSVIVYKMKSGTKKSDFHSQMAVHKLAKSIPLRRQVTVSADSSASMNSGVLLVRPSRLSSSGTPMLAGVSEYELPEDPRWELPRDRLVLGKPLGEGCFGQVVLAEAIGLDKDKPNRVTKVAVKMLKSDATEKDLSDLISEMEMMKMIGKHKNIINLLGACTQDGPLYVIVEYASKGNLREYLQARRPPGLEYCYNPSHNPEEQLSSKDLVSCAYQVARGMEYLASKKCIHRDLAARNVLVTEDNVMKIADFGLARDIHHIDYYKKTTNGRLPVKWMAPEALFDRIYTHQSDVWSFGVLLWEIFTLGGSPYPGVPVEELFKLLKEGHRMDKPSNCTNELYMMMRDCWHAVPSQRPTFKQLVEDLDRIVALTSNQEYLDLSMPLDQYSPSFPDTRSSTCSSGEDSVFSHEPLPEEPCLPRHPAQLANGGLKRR
KANEFYPVVII [ADAMTS18_Y765_L769I_YF] was tested, and the phosphorylation enrichment was 1.9.
DIMDLYNQPEP [IL36A_Y96] was tested, and the phosphorylation enrichment was 0.491.
YNNYGYGNDGF [HNRNPH3_Y161] gave a phosphorylation enrichment of 0.766.
For AVEDQYFCVDC [FHL1_Y207_YF], the phosphorylation enrichment was 5.2.
For EGNEQYEGFCV [GRIA3_Y451_R450Q_YF], the phosphorylation enrichment was 0.618.
DHAGTYGLGDR [MAPT_Y18] showed a phosphorylation enrichment of 0.406.
ATPKGYEPDAS [OTC_Y223] gave a phosphorylation enrichment of 0.49.
NRVEIYDKTVE [CYFIP1_Y108_E109D] gave a phosphorylation enrichment of 0.534.
Sequence FTRNYYVQAVL [CYBA_Y88_R90Q] has a phosphorylation enrichment of 1.59.
Sequence AGNPAYRSFSN [IL4R_Y497] has a phosphorylation enrichment of 0.366.
ENEGTYVCIAA [ADAMTSL3_Y1365_T1370A] was tested, and the phosphorylation enrichment was 1.53.
QYPDVYAREEV [CRX_Y67] was tested, and the phosphorylation enrichment was 0.959.
Work on SLVVPYEPPEV [TP53_Y220_V216L] yielded a phosphorylation enrichment of 0.672.
Sequence PLKFLYPNIDR [STAT1_Y668_K673R_YF] has a phosphorylation enrichment of 0.443.
LNPDGYEKAFE [CPXM2_Y427_YF] showed a phosphorylation enrichment of 0.769.
SAPPSHEETVA [LITAF_Y23_Y23H] gave a phosphorylation enrichment of 0.374.
Work on TESALYGCTIL [MAP3K21_Y724_V728I] yielded a phosphorylation enrichment of 0.5.
GHLFACDWISI [BEST1_Y227_Y227C_YF] showed a phosphorylation enrichment of 0.613.
QIGRKYKKVRF [F8_Y442_R437Q] was tested, and the phosphorylation enrichment was 0.807.
Work on RREWFYEVIIV [BACE1_Y260_YF] yielded a phosphorylation enrichment of 0.605.
Work on TLKDVYDDGKY [RPS6KA3_Y483] yielded a phosphorylation enrichment of 0.557.
PLQDVYKIGGI [EEF1A2_Y254] showed a phosphorylation enrichment of 0.505.
In the case of PQEVMYAQLDH [KIR3DL2_Y398_T397M], the phosphorylation enrichment is reported as 2.69.
With SVQVDYMKTIL [GLYATL2_Y127] the phosphorylation enrichment was 0.505.
With RQQEVYLLYKQ [RARRES1_Y159_D158V] the phosphorylation enrichment was 0.672.
With KERNQYGEVMV [MMP21_Y347] the phosphorylation enrichment was 0.502.
DVLVEYQEEGR [GNS_Y416_G418E] was tested, and the phosphorylation enrichment was 0.59.
DTKPAYQNLRQ [BOD1_Y82] showed a phosphorylation enrichment of 0.434.
Work on SGETEYNPTEA [NBEAL2_Y2748] yielded a phosphorylation enrichment of 0.77.
For RRSQSYNPTSG [PLEKHA2_Y185_I186N], the phosphorylation enrichment was 0.649.
With FISVGYVDDTL [HLA-B_Y51_Q56L] the phosphorylation enrichment was 0.572.
EQSGSYIWVLA [DLG1_Y895_P899L] was tested, and the phosphorylation enrichment was 1.11.
In the case of DDKQPYEKKAA [HMGB1_Y144], the phosphorylation enrichment is reported as 0.493.

Each sequence was assayed against MERTK (UniProt Q12866) in the same assay as above.
MERTK, sequence (Q12866 whole entry, looked up): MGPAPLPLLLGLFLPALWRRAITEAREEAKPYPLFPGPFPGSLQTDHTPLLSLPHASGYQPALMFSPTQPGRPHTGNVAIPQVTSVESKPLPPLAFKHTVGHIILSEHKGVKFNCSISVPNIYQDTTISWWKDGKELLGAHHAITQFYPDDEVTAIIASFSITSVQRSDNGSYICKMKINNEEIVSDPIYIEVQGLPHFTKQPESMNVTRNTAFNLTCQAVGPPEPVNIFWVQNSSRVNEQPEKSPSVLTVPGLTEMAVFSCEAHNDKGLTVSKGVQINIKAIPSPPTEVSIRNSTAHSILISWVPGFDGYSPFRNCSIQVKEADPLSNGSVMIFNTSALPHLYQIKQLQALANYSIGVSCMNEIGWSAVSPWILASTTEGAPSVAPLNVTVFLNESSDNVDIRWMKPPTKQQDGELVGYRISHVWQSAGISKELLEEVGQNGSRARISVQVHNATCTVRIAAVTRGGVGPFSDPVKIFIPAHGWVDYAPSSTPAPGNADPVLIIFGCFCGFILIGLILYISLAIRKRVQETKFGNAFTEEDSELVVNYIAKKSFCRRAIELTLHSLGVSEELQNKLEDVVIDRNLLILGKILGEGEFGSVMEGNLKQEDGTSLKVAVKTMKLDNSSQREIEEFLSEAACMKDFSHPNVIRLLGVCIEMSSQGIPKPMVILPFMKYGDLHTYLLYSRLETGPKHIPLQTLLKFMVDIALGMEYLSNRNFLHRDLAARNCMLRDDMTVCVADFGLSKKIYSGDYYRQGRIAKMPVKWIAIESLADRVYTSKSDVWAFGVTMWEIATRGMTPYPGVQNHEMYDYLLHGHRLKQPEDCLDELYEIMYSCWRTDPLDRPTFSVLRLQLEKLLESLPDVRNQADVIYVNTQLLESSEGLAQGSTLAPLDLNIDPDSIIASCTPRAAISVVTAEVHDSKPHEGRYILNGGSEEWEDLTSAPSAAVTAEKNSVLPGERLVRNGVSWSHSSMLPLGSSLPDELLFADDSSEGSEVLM
Sequence KANEFYPVVII [ADAMTS18_Y765_L769I_YF] has a phosphorylation enrichment of 0.386.
Sequence DIMDLYNQPEP [IL36A_Y96] has a phosphorylation enrichment of 0.481.
YNNYGYGNDGF [HNRNPH3_Y161] gave a phosphorylation enrichment of 0.759.
Work on AVEDQYFCVDC [FHL1_Y207_YF] yielded a phosphorylation enrichment of 0.622.
EGNEQYEGFCV [GRIA3_Y451_R450Q_YF] gave a phosphorylation enrichment of 0.832.
In the case of DHAGTYGLGDR [MAPT_Y18], the phosphorylation enrichment is reported as 0.352.
ATPKGYEPDAS [OTC_Y223] was tested, and the phosphorylation enrichment was 0.489.
Sequence NRVEIYDKTVE [CYFIP1_Y108_E109D] has a phosphorylation enrichment of 0.4.
In the case of FTRNYYVQAVL [CYBA_Y88_R90Q], the phosphorylation enrichment is reported as 0.887.
AGNPAYRSFSN [IL4R_Y497] gave a phosphorylation enrichment of 0.39.
ENEGTYVCIAA [ADAMTSL3_Y1365_T1370A] gave a phosphorylation enrichment of 0.69.
In the case of QYPDVYAREEV [CRX_Y67], the phosphorylation enrichment is reported as 1.8.
SLVVPYEPPEV [TP53_Y220_V216L] showed a phosphorylation enrichment of 0.595.
Work on PLKFLYPNIDR [STAT1_Y668_K673R_YF] yielded a phosphorylation enrichment of 0.519.
LNPDGYEKAFE [CPXM2_Y427_YF] was tested, and the phosphorylation enrichment was 0.483.
SAPPSHEETVA [LITAF_Y23_Y23H] was tested, and the phosphorylation enrichment was 0.338.
In the case of TESALYGCTIL [MAP3K21_Y724_V728I], the phosphorylation enrichment is reported as 1.57.
For GHLFACDWISI [BEST1_Y227_Y227C_YF], the phosphorylation enrichment was 0.396.
Work on QIGRKYKKVRF [F8_Y442_R437Q] yielded a phosphorylation enrichment of 0.923.
In the case of RREWFYEVIIV [BACE1_Y260_YF], the phosphorylation enrichment is reported as 2.28.
Work on TLKDVYDDGKY [RPS6KA3_Y483] yielded a phosphorylation enrichment of 0.557.
For PLQDVYKIGGI [EEF1A2_Y254], the phosphorylation enrichment was 0.522.
PQEVMYAQLDH [KIR3DL2_Y398_T397M] showed a phosphorylation enrichment of 6.77.
SVQVDYMKTIL [GLYATL2_Y127] showed a phosphorylation enrichment of 0.428.
Sequence RQQEVYLLYKQ [RARRES1_Y159_D158V] has a phosphorylation enrichment of 0.842.
Work on KERNQYGEVMV [MMP21_Y347] yielded a phosphorylation enrichment of 0.404.
Work on DVLVEYQEEGR [GNS_Y416_G418E] yielded a phosphorylation enrichment of 0.51.
DTKPAYQNLRQ [BOD1_Y82] was tested, and the phosphorylation enrichment was 0.313.
Work on SGETEYNPTEA [NBEAL2_Y2748] yielded a phosphorylation enrichment of 0.562.
RRSQSYNPTSG [PLEKHA2_Y185_I186N] gave a phosphorylation enrichment of 0.491.
FISVGYVDDTL [HLA-B_Y51_Q56L] was tested, and the phosphorylation enrichment was 0.436.
With EQSGSYIWVLA [DLG1_Y895_P899L] the phosphorylation enrichment was 0.504.
In the case of DDKQPYEKKAA [HMGB1_Y144], the phosphorylation enrichment is reported as 0.415.

What follows are sequences tested against Fyn (UniProt P06241) in the same assay as above.
Fyn, sequence (P06241 whole entry, looked up): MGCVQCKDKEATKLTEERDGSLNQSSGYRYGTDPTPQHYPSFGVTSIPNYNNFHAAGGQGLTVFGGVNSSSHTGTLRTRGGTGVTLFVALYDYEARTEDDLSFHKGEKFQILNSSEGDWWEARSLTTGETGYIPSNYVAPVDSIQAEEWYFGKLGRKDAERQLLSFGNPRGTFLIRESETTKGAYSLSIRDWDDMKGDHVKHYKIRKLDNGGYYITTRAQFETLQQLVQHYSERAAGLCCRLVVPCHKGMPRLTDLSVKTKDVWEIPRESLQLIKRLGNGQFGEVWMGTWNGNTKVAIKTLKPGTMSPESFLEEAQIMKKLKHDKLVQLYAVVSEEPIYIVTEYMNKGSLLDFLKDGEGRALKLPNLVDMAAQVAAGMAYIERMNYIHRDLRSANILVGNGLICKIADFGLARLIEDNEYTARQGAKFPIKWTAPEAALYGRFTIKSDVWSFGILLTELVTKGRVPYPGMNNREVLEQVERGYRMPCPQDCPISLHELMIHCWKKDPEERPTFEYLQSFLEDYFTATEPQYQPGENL
In the case of KANEFYPVVII [ADAMTS18_Y765_L769I_YF], the phosphorylation enrichment is reported as 0.458.
DIMDLYNQPEP [IL36A_Y96] showed a phosphorylation enrichment of 0.69.
For YNNYGYGNDGF [HNRNPH3_Y161], the phosphorylation enrichment was 0.577.
With AVEDQYFCVDC [FHL1_Y207_YF] the phosphorylation enrichment was 0.775.
EGNEQYEGFCV [GRIA3_Y451_R450Q_YF] gave a phosphorylation enrichment of 0.726.
Sequence DHAGTYGLGDR [MAPT_Y18] has a phosphorylation enrichment of 0.48.
Work on ATPKGYEPDAS [OTC_Y223] yielded a phosphorylation enrichment of 0.501.
NRVEIYDKTVE [CYFIP1_Y108_E109D] was tested, and the phosphorylation enrichment was 0.443.
FTRNYYVQAVL [CYBA_Y88_R90Q] gave a phosphorylation enrichment of 0.486.
In the case of AGNPAYRSFSN [IL4R_Y497], the phosphorylation enrichment is reported as 0.402.
ENEGTYVCIAA [ADAMTSL3_Y1365_T1370A] gave a phosphorylation enrichment of 1.39.
In the case of QYPDVYAREEV [CRX_Y67], the phosphorylation enrichment is reported as 1.66.
SLVVPYEPPEV [TP53_Y220_V216L] was tested, and the phosphorylation enrichment was 0.62.
PLKFLYPNIDR [STAT1_Y668_K673R_YF] showed a phosphorylation enrichment of 0.796.
For LNPDGYEKAFE [CPXM2_Y427_YF], the phosphorylation enrichment was 0.576.
Work on SAPPSHEETVA [LITAF_Y23_Y23H] yielded a phosphorylation enrichment of 0.481.
TESALYGCTIL [MAP3K21_Y724_V728I] was tested, and the phosphorylation enrichment was 6.
GHLFACDWISI [BEST1_Y227_Y227C_YF] showed a phosphorylation enrichment of 0.45.
Sequence QIGRKYKKVRF [F8_Y442_R437Q] has a phosphorylation enrichment of 0.795.
RREWFYEVIIV [BACE1_Y260_YF] was tested, and the phosphorylation enrichment was 0.649.
In the case of TLKDVYDDGKY [RPS6KA3_Y483], the phosphorylation enrichment is reported as 0.58.
With PLQDVYKIGGI [EEF1A2_Y254] the phosphorylation enrichment was 2.3.
PQEVMYAQLDH [KIR3DL2_Y398_T397M] gave a phosphorylation enrichment of 6.26.
SVQVDYMKTIL [GLYATL2_Y127] gave a phosphorylation enrichment of 0.407.
For RQQEVYLLYKQ [RARRES1_Y159_D158V], the phosphorylation enrichment was 0.919.
KERNQYGEVMV [MMP21_Y347] gave a phosphorylation enrichment of 1.39.
DVLVEYQEEGR [GNS_Y416_G418E] gave a phosphorylation enrichment of 0.593.
Work on DTKPAYQNLRQ [BOD1_Y82] yielded a phosphorylation enrichment of 0.383.
For SGETEYNPTEA [NBEAL2_Y2748], the phosphorylation enrichment was 0.69.
With RRSQSYNPTSG [PLEKHA2_Y185_I186N] the phosphorylation enrichment was 0.897.
FISVGYVDDTL [HLA-B_Y51_Q56L] showed a phosphorylation enrichment of 0.486.
Work on EQSGSYIWVLA [DLG1_Y895_P899L] yielded a phosphorylation enrichment of 0.482.
Work on DDKQPYEKKAA [HMGB1_Y144] yielded a phosphorylation enrichment of 0.518.

The sequences below were run against FGFR3 (UniProt P22607) in the same assay as above.
FGFR3, sequence (P22607 whole entry, looked up): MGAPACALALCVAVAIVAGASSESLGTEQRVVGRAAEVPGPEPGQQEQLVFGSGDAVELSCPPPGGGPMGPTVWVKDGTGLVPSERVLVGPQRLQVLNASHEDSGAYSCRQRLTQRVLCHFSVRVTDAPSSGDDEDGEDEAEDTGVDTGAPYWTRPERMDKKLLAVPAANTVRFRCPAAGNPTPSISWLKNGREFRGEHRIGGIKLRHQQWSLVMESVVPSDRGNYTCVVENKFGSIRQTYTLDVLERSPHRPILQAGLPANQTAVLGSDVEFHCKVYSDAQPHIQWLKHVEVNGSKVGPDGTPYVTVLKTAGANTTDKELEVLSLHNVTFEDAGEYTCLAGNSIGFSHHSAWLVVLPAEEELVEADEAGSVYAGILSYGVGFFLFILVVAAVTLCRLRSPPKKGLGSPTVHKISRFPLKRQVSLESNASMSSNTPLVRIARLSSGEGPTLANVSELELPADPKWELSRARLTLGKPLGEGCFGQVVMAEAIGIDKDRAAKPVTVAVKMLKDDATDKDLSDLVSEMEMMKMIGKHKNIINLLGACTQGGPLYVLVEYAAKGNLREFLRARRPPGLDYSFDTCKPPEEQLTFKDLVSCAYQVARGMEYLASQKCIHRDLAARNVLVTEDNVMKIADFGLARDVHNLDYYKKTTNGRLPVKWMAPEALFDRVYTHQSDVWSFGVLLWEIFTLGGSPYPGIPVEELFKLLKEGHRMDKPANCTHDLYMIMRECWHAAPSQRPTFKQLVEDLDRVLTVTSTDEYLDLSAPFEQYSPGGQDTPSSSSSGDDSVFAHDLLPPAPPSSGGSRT
In the case of KANEFYPVVII [ADAMTS18_Y765_L769I_YF], the phosphorylation enrichment is reported as 1.26.
DIMDLYNQPEP [IL36A_Y96] was tested, and the phosphorylation enrichment was 0.688.
Work on YNNYGYGNDGF [HNRNPH3_Y161] yielded a phosphorylation enrichment of 0.766.
In the case of AVEDQYFCVDC [FHL1_Y207_YF], the phosphorylation enrichment is reported as 3.66.
Sequence EGNEQYEGFCV [GRIA3_Y451_R450Q_YF] has a phosphorylation enrichment of 0.822.
Sequence DHAGTYGLGDR [MAPT_Y18] has a phosphorylation enrichment of 0.45.
ATPKGYEPDAS [OTC_Y223] gave a phosphorylation enrichment of 0.59.
Work on NRVEIYDKTVE [CYFIP1_Y108_E109D] yielded a phosphorylation enrichment of 0.519.
FTRNYYVQAVL [CYBA_Y88_R90Q] was tested, and the phosphorylation enrichment was 2.67.
AGNPAYRSFSN [IL4R_Y497] was tested, and the phosphorylation enrichment was 0.414.
With ENEGTYVCIAA [ADAMTSL3_Y1365_T1370A] the phosphorylation enrichment was 1.62.
QYPDVYAREEV [CRX_Y67] showed a phosphorylation enrichment of 1.66.
SLVVPYEPPEV [TP53_Y220_V216L] gave a phosphorylation enrichment of 0.836.
PLKFLYPNIDR [STAT1_Y668_K673R_YF] showed a phosphorylation enrichment of 0.953.
LNPDGYEKAFE [CPXM2_Y427_YF] showed a phosphorylation enrichment of 0.704.
With SAPPSHEETVA [LITAF_Y23_Y23H] the phosphorylation enrichment was 0.84.
TESALYGCTIL [MAP3K21_Y724_V728I] gave a phosphorylation enrichment of 1.19.
In the case of GHLFACDWISI [BEST1_Y227_Y227C_YF], the phosphorylation enrichment is reported as 0.639.
Sequence QIGRKYKKVRF [F8_Y442_R437Q] has a phosphorylation enrichment of 1.11.
With RREWFYEVIIV [BACE1_Y260_YF] the phosphorylation enrichment was 0.505.
For TLKDVYDDGKY [RPS6KA3_Y483], the phosphorylation enrichment was 0.64.
For PLQDVYKIGGI [EEF1A2_Y254], the phosphorylation enrichment was 0.793.
Work on PQEVMYAQLDH [KIR3DL2_Y398_T397M] yielded a phosphorylation enrichment of 2.2.
For SVQVDYMKTIL [GLYATL2_Y127], the phosphorylation enrichment was 0.643.
Work on RQQEVYLLYKQ [RARRES1_Y159_D158V] yielded a phosphorylation enrichment of 1.11.
With KERNQYGEVMV [MMP21_Y347] the phosphorylation enrichment was 0.463.
For DVLVEYQEEGR [GNS_Y416_G418E], the phosphorylation enrichment was 0.884.
Sequence DTKPAYQNLRQ [BOD1_Y82] has a phosphorylation enrichment of 0.452.
SGETEYNPTEA [NBEAL2_Y2748] gave a phosphorylation enrichment of 0.82.
Work on RRSQSYNPTSG [PLEKHA2_Y185_I186N] yielded a phosphorylation enrichment of 0.523.
In the case of FISVGYVDDTL [HLA-B_Y51_Q56L], the phosphorylation enrichment is reported as 0.801.
With EQSGSYIWVLA [DLG1_Y895_P899L] the phosphorylation enrichment was 0.917.
DDKQPYEKKAA [HMGB1_Y144] gave a phosphorylation enrichment of 0.629.
